Results as given in PMC2702006.
One block for each substance: values may come before it.

How the values were obtained:
[1] = target: human Hsp90β (human) (UniProt P08238); assay: cross-linking
[2] = target: yeast Hsp90 L15A (yeast) (UniProt P02829)
[3] = target: yeast Hsp90 L18A (yeast) (UniProt P02829)
[4] = target: yeast Hsp90 L18R (yeast) (UniProt P02829)

Chain of human Hsp90β, P08238 1-724 (natural protein; other documents disagree on this pair) (P08238 whole entry): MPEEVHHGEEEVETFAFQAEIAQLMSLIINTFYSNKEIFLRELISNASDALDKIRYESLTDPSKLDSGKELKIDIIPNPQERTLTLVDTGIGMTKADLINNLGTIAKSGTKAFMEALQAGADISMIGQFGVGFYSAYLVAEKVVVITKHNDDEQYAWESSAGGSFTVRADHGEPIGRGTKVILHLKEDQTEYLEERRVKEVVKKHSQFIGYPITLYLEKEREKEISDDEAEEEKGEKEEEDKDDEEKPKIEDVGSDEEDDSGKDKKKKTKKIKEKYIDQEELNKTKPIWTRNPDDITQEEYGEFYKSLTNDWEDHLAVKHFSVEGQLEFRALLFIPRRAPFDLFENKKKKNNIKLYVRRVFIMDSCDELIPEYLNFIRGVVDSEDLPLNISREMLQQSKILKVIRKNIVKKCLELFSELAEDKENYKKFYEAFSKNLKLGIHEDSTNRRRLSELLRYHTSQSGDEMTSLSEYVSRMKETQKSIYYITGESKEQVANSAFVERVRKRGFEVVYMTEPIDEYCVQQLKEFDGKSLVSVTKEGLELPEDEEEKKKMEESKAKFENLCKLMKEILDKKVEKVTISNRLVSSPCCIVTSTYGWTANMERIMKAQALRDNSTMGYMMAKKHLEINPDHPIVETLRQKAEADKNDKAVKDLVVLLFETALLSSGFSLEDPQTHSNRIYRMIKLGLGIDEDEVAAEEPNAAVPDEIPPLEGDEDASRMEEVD

stoichiometry N [1]: 2
Substance: human Hsp90β, P08238 1-724 (natural protein; other documents disagree on this pair)

ATPase activity relative to wild-type yeast Hsp90 [2]: 157
Substance: yeast Hsp90 L15A (from UniProt P02829 1-709) (natural protein)

ATPase activity relative to wild-type yeast Hsp90 [3]: 103
Substance: yeast Hsp90 L18A (from UniProt P02829 1-709) (natural protein)

ATPase activity relative to wild-type yeast Hsp90 [4]: 42
Substance: yeast Hsp90 L18R (from UniProt P02829 1-709) (natural protein)
